Measured values from the nanobody polyreactivity screen of Harvey et al. (2022).

Assay: yeast display, Sf9 membrane polyspecificity reagent, FACS + sequencing; frameworks hold sequencing errors
How it was run: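 A synthetic nanobody library was expressed on Saccharomyces cerevisiae BJ5465 by galactose induction for 36–48 hours. The library was stained for 1 hour at 4 °C with 10% biotinylated, detergent-solubilized Sf9 membrane reagent and enriched with streptavidin microbeads before FACS. Low and high (top ~1%) gates were set on anti-HA fluorescence for expression and streptavidin fluorescence for reagent binding, and each polyreactivity label reflects the gate of origin.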

Sequence | polyreactivity (PSR sort gate)
QVQLVESGGGLVQAGGSLRLSCAASGRIFTSNAMGWYRQAPGKERELVAAINRSGGRTYYADSVKGRFTISRDNAKNTVYLQMNSLKPEDTAVYYCNKVPYVFGFAASDYWGQGTQVTVSS | high polyreactivity
QVQLVESGGGLVQAGGSLRLSCAASGRIFTSNTMGWYRPAPGKERELVAAITSSGGSMYYADSVKGRFTISRDNAKNTVYIQMNSLKPEDTAVYYCAARNYFWGQGTQVTVSS | low polyreactivity
QVQLVESGGGLVQAGGSLRLSCAASGRIFTSYAMGWYRQAPGKEREFVAAITKSGGSTYYADSVKGRFTISRDNAKNTVYLQMNSLKPEDTAVYYCAVEGWDVYQDPYLYDYWGQGTQVTVSS | low polyreactivity
QVQLVESGGGLVQAGGSLRLSCAASGRIFTTNAMGWYRQAPGKERELVASISKSGGSTYYADSVKGRFTISRDTAKNTVYLQMNSLKPEDTAVYYCAASSYSTSYIRGDYWGQGTQVTVSS | low polyreactivity
QVQLVESGGGLVQAGGSLRLSCAASGRIFTTYAMGWYRQAPGKERELVARITLSAGRTYYADSVKGRFTISRDNAKYSVYLQMNSLKPEDTEVYYCAAEGFYRSSPVRTYIGYDYWGQGTQVTVSS | high polyreactivity
QVQLVESGGGLVQAGGSLRLSCAASGRIFTTYVMGWYRQAPGKERELVAAISARGSTYYADSVKGRFTISRDNAKNTVYLEMNSLKPEDTAVYYCAAGHRLPVYYGYPRATYNYWGQGTQVTVSS | low polyreactivity
QVQLVESGGGLVQAGGSLRLSCAASGRIFTVNAMGWYRQAPGKERELVAAISKSGGRTYYADSVKGRFTISRDNAKNTVYLQMNSLKPEDTAVYYCAKRVRTGSVGNFNYWGLGTQVTVSS | high polyreactivity
QVQLVESGGGLVQAGGSLRLSCAASGRIFTVNTMGWYREAPGKERELVASIRGGGSTNYADSVKGRFTISRDNAKNTVYLQMNSLKPEDTAVYYCAAGTSKPTPIYGYWGQGTQVPVSS | low polyreactivity
QVQLVESGGGLVQAGGSLRLSCAASGRIFTVYAMGWYRQAPGQERELVAAISRGGSTYADSVKGRFTISRDNAKISVYLQMNSLKPEDTAVYYCAAVNFRKGEDYWGQGTQVTVSS | high polyreactivity
QVQLVESGGGLVQAGGSLRLSCAASGRIFTWNGMGWYRQATGKERELVAAITSGGRTYADSVKGRFTISRDNAKNTVYLQMNSLKPEDTAVYYCAADVRRRYIWYDYWGQGTQVTVSS | high polyreactivity
QVQLVESGGGLVQAGGSLRLSCAASGRIFTWYAMGWYRQAPGKERELVAAISWSGGRTYYADSVKGRFTISRDYSKNTVYLQMNSLKPEVTAVYYCAAREPGRTLDYLGQGTQVTVSS | high polyreactivity
QVQLVESGGGLVQAGGSLRLSCAASGRIFTYNAMGWSRQAPGKERELVATITNGGRTYYADSVKGRFTISRDNAKNTVYLQMNSLKPEDTAVYYCNAGYITYWYAVFYQIDDYWGQGTQVTVSS | low polyreactivity
QVQLVESGGGLVQAGGSLRLSCAASGRIFTYNAMGWYRQAPGKERELVAAISTRGGTTRYADSVKGRFTISRDNAKNTVYLQMNSLKPEDTAVYYCNAVSRGSRWDGLVRLDYWGQGTQVTVSS | high polyreactivity
QVQLVESGGGLVQAGGSLRLSCAASGRIFTYNAMGWYRQAPGKERELVAVISRRGGSTYYADSVKGRFTISRDYAKNTVYFQMNSLKAEDTAVYYCAGDLPSYPYEYWGQGTQVTVSS | low polyreactivity
QVQLVESGGGLVQAGGSLRLSCAASGRIFTYYAMGWYRQAPGKERELVAAISRRGGSTYYADSVKGRFTISRDNAKNTVYLQMNSLKPEDTAVYYCNAPTKAGGSHYWGQGTQVTVSS | high polyreactivity
QVQLVESGGGLVQAGGSLRLSCAASGRIFTYYAMGWYRQAPGKERELVAAITSRGGRTYYADSVKGRFTISRDNAKNTVYLQMNSLKPEDTAVYYCNVDRWRRTISHDIYGYWGQGTQVTVSS | high polyreactivity
QVQLVESGGGLVQAGGSLRLSCAASGRIFTYYAMGWYSQAPGKERELVAAISRSGGRTYYADSVKGRFTISRDNAKNTVYLQMNSLTPEDTAVYYCAADRLSLRAYDYWGQGTQVTVSS | high polyreactivity
